What is called Kd is the concentration at which binding is half-saturated. Higher therefore signals weaker binding.

Here are results for one substance from US20050282216A1.

Assay [1] addresses human IL-13Rα (human) (UniProt P78552). The experiment in a line: radioligand binding on CHO cells; the basis of this value is not explained.
Assay [2] addresses human IL-13Rβ (human) (UniProt Q14627). The experiment in a line: Scatchard analysis of saturation binding of 125I-labelled IL-13 on Caki-1 cells.
In assay [3] the target is human IL-13Rα (human) (UniProt P78552). The experiment in a line: Scatchard analysis of saturation binding on CHO cells transfected with IL-13Rα cDNA.
For assay [4], the target named is human IL-13Rβ (human) (UniProt Q14627). Briefly: Scatchard analysis of saturation binding on COS-7 cells transfected with IL-13Rβ cDNA.
For assay [5], the target named is hIL-13Rα and hIL-4R coexpressed on cells (reconstituted high-affinity receptor) (human) (UniProt P24394). Briefly: Scatchard analysis on CHO-hIL4R cells transfected with hIL-13Rα cDNA, high-affinity site.
The target of assay [6] is human IL-13Rα (human) (UniProt P78552). The experiment in a line: Scatchard analysis on CHO-hIL4R cells transfected with hIL-13Rα cDNA, low-affinity site (nonassociated IL-13Rα chains).

UniProt P78552, sequence (P78552 22-427 limits assumed, form in doubt): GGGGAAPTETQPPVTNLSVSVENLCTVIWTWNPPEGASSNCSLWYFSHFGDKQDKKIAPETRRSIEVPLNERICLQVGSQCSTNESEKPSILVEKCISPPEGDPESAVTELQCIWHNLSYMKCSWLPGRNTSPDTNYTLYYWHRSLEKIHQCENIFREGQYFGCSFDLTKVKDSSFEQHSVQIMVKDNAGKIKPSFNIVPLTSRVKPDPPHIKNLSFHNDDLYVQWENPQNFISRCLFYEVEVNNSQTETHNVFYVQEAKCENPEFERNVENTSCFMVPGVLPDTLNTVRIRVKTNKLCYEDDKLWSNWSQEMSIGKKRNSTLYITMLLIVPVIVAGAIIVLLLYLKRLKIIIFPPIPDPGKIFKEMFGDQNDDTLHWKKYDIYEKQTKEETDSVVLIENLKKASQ
UniProt Q14627, sequence (Q14627 27-380 limits assumed, form in doubt): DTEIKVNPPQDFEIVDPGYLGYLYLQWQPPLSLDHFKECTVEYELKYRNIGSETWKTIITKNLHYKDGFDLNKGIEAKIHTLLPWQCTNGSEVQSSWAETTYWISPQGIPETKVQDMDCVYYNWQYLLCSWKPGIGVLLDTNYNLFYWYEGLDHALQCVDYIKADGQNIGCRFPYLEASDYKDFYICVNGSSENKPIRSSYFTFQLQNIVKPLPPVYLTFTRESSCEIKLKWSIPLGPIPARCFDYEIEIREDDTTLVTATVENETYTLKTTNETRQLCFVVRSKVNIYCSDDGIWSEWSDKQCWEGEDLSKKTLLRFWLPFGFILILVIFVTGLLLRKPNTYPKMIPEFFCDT

In the case of “[125I][Phe43]-IL-13-GlyTyrGlyTyr (from UniProt P35225 35-146) (ligand)”, the Kd in assay [1] amounted to 7.5 nM; in assay [2], 0.446 nM; in assay [3], 4.5 nM; in assay [4], 0.25 nM; in assay [5], 0.023 nM; in assay [6], 4.2 nM.
